Assay results published in the supplement of paper PMC11196671.
± gives the standard deviation of the averaged measurements.

Assay: PET hydrolysis product formed (TPA+MHET+BHET, UV-Vis) per mg enzyme (mmol/mg enzyme); higher = more PET depolymerisation activity; extreme values may be limits of the assay
Conditions: 24 h
Procedure: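 Purified PET hydrolases, 2.5 ug enzyme on 3.5 mg amorphous PET film (aFilm) or crystalline PET powder (cryPow) in 0.5 mL of 50 mM buffer (NaCitrate pH 4.5/5.5, NaPhosphate 6.5/7.5, glycine 8.5/9.5) at 60 or 70 C with shaking for 24 h. Total aromatic product by UV-Vis (260/280 nm, blank-subtracted, normalised per mg enzyme) and individual TPA, MHET, BHET concentrations by UHPLC-DAD at 240 nm; duplicate reactions.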

[1] = PET substrate: aFilm, 60 °C, pH 4.5
[2] = PET substrate: aFilm, 60 °C, pH 5.5
[3] = PET substrate: aFilm, 60 °C, pH 6.5
[4] = PET substrate: aFilm, 60 °C, pH 7.5
[5] = PET substrate: aFilm, 60 °C, pH 8.5
[6] = PET substrate: aFilm, 60 °C, pH 9.5
[7] = PET substrate: aFilm, 70 °C, pH 4.5
[8] = PET substrate: aFilm, 70 °C, pH 5.5
[9] = PET substrate: aFilm, 70 °C, pH 6.5
[10] = PET substrate: aFilm, 70 °C, pH 7.5
[11] = PET substrate: aFilm, 70 °C, pH 8.5
[12] = PET substrate: aFilm, 70 °C, pH 9.5
[13] = PET substrate: cryPow, 60 °C, pH 4.5
[14] = PET substrate: cryPow, 60 °C, pH 5.5
[15] = PET substrate: cryPow, 60 °C, pH 6.5
[16] = PET substrate: cryPow, 60 °C, pH 7.5
[17] = PET substrate: cryPow, 60 °C, pH 8.5
[18] = PET substrate: cryPow, 60 °C, pH 9.5
[19] = PET substrate: cryPow, 70 °C, pH 4.5
[20] = PET substrate: cryPow, 70 °C, pH 5.5
[21] = PET substrate: cryPow, 70 °C, pH 6.5
[22] = PET substrate: cryPow, 70 °C, pH 7.5
[23] = PET substrate: cryPow, 70 °C, pH 8.5
[24] = PET substrate: cryPow, 70 °C, pH 9.5

Row | Sequence | PET hydrolysis product formed [1] | PET hydrolysis product formed [2] | PET hydrolysis product formed [3] | PET hydrolysis product formed [4] | PET hydrolysis product formed [5] | PET hydrolysis product formed [6] | PET hydrolysis product formed [7] | PET hydrolysis product formed [8] | PET hydrolysis product formed [9] | PET hydrolysis product formed [10] | PET hydrolysis product formed [11] | PET hydrolysis product formed [12] | PET hydrolysis product formed [13] | PET hydrolysis product formed [14] | PET hydrolysis product formed [15] | PET hydrolysis product formed [16] | PET hydrolysis product formed [17] | PET hydrolysis product formed [18] | PET hydrolysis product formed [19] | PET hydrolysis product formed [20] | PET hydrolysis product formed [21] | PET hydrolysis product formed [22] | PET hydrolysis product formed [23] | PET hydrolysis product formed [24]
1 | SNPYQRGPNPTRSALTADGPFSVATYTVSRLSVSGFGGGVIYYPTGTSLTFGGIAMSPGYTADASSLAWLGRRLASHGFVVLVINTNSRFDGPDSRASQLSAALNYLRTSDPSAVRARLDANRLAVAGHSMGGGATLRIAEQNPSLKAAIPLTPWHTQKTFNTSVPVLIVGAEADTVAPVSQHAIPFYQNLPSTTPKVYVELCNASHIAPNSNNAAISVYTISWMKLWVDNDTRYRQFLCNVNDPALCDFRTNNRHCQ [LCC-ICCG DAQI] | 0.0166 ± 0.00087 | 0.125 ± 0.026 | 0.232 ± 0.055 | 1.37 ± 0.25 | 0.167 ± 0.0061 | 0.87 ± 0.012 | 0 | 0.0923 ± 0.0019 | 0.205 ± 0.025 | 2.08 ± 0.32 | 0.1 ± 0.021 | 0.859 ± 0.11 | 0.0113 ± 0.00097 | 0.0632 ± 0.0075 | 0.0902 ± 0.0042 | 0.173 ± 0.029 | 0.0738 ± 0.0022 | 0.1163 ± 0.00055 | 0 | 0.0244 ± 0.0029 | 0.0648 ± 0.012 | 0.193 ± 0.02 | 0.0669 ± 0.0013 | 0.132 ± 0.011
2 | QTNPYARGPNPTAASLEASAGPFTVRSFTVARPVGYGAGTVYYPTNAGGTVGAIAIVPGYTATQSSINWWGPRLASHGFVVITIDTNSTLDKPESRSSQQMAALRQVASLNGTSSSPIYGKVDTARGGVMGWSMGGGGSLISAANNPSLKAAAVMAPWHSSTNFSSVTVPTLIFACENDRIAPVKEYALPIYDSMSLNAKQFLEICGGSHSCACSGNSNQALIGMKGVAWMKRFMDNDTRYSQFACENPNSTAVCDFRTANCS [HotPETase] | 0 | 0.126 ± 0.01 | 0.172 ± 0.017 | 1.02 ± 0.28 | 0.116 ± 0.0013 | 0.744 ± 0.13 | 0 | 0 | 0.0334 ± 0.033 | 0.0761 ± 0.082 | 0.049 ± 0.0026 | 0.175 ± 0.067 | 0 | 0.118 ± 0.008 | 0.14 ± 0.0042 | 0.195 ± 0.031 | 0.104 ± 0.008 | 0.151 ± 0.0065 | 0 | 0.0481 ± 0.003 | 0.103 ± 0.0067 | 0.094 ± 0.019 | 0.0775 ± 0.0022 | 0.0809 ± 0.015
3 | ADNPYQRGPDPTNASIEAATGPFAVGTQPIVGASGFGGGQIYYPTDTSQTYGAVVIVPGFISVWAQLAWLGPRLASQGFVVIGIETSTITDLPDPRGDQALAALDWATTRSPVRSRIDRTRLAAAGWSMGGGGLRRAACQRPSLKAIVGMAPWNTEKNWSCVTVPTLFFGGSSDAVASPNDHAKPFYNSITRAEKDYIELCNADHFFPTSANTTMAKYFISWLKRWVDNDTRYTQFLCPGPSTGLFAPVCASMNTCPF [CaPETaseM9] | 0 | 0.0213 ± 0.013 | 0.0426 ± 0.0061 | 0.132 ± 0.037 | 0.0575 ± 0.005 | 0.102 ± 0.029 | 0 | 0 | 0 | 0 | 0 | 0 | 0.016 ± 0.0019 | 0.0317 ± 0.0017 | 0.0476 ± 0.0037 | 0.0789 ± 0.011 | 0.0427 ± 0.0075 | 0.0717 ± 0.019 | 0 | 0.00351 ± 0.005 | 0.0154 ± 0.0042 | 0.0196 ± 0.0026 | 0.0178 ± 0.0023 | 0.0148 ± 0.0087
4 | QDNPYERGPDPTEDSIEAIRGPFSVATERVSSFASGFGGGTIYYPRETDEGTFGAVAVAPGFTASQGSMSWYGERVASHGFIVFTIDTNTRLDAPGQRGRQLLAALDYLVERSDRKVRERLDPNRLAVMGHSMGGGGSLEATVMRPSLKASIPLTPWHLDKTWGQVQVPTFIIGAELDTIAPVSTHAKPFYESLPSSLPKAYMELCGATHFAPNIPNTTIAKYVISWLKRFVDEDTRYSQFLCPNPTDRAICEYRSTCPY [Cut190*SS] | 0 | 0 | 0.0256 ± 0.0062 | 0.154 ± 0.0032 | 0.0616 ± 0.0081 | 0.162 ± 0.035 | 0 | 0 | 0 | 0.191 ± 0.0084 | 0 | 0.169 ± 0.015 | 0 | 0.0274 ± 0.0032 | 0.0533 ± 0.0029 | 0.0968 ± 0.012 | 0.0772 ± 0.035 | 0.0813 ± 0.026 | 0 | 0 | 0.00998 ± 0.0019 | 0.031 | 0.0112 ± 0.00036 | 0.0149 ± 0.0056
5 | SNPYQRGPNPTRSALTADGPFSVATYTVSRLSVSGFGGGVIYYPTGTSLTFGGIAMSPGYTADASSLAWLGRRLASHGFVVLVINTNSRFDGPDSRASQLSAALNYLRTSSPSAVRARLDANRLAVAGHSMGGGGTLRIAEQNPSLKAAVPLTPWHTDKTFNTSVPVLIVGAEADTVAPVSQHAIPFYQNLPSTTPKVYVELCNASHIAPNSNNAAISVYTISWMKLWVDNDTRYRQFLCNVNDPALCDFRTNNRHCQ [LCC-ICCG] | 0.00176 ± 0.0035 | 0.126 ± 0.044 | 0.327 ± 0.047 | 1.42 ± 0.13 | 0.142 ± 0.024 | 0.885 ± 0.11 | 0 | 0.109 ± 0.03 | 0.165 ± 0.029 | 1.92 ± 0.32 | 0.107 ± 0.027 | 0.901 ± 0.076 | 0 | 0.0652 ± 0.012 | 0.09 ± 0.013 | 0.184 ± 0.032 | 0.0728 ± 0.0063 | 0.125 ± 0.028 | 0 | 0.031 ± 0.0079 | 0.0781 ± 0.017 | 0.2 ± 0.024 | 0.0667 ± 0.0095 | 0.131 ± 0.018
